Experimental data from patent US20220308072A1.

Key:
[1] = target: Recombinant, his tagged full length human frataxin protein (Abcam ab95502) (human) (UniProt Q16595); test: Simoa sandwich 2-step; capture Ab-1
[2] = target: Recombinant, his tagged full length human frataxin protein (Abcam ab95502) (human) (UniProt Q16595); test: Simoa sandwich; capture Ab-1; no helper beads
[3] = target: Recombinant, his tagged full length human frataxin protein (Abcam ab95502) (human) (UniProt Q16595); test: Simoa sandwich 2-step; capture Ab-1; frataxin 55.6 pg/mL
[4] = target: Recombinant, his tagged full length human frataxin protein (Abcam ab95502) (human) (UniProt Q16595); test: Simoa sandwich 3-step; capture Ab-3; frataxin 10000 pg/mL
[5] = target: Recombinant, his tagged full length human frataxin protein (Abcam ab95502) (human) (UniProt Q16595); test: Simoa sandwich 2-step; capture Ab-1; frataxin 0.686 pg/mL
[6] = target: Recombinant, his tagged full length human frataxin protein (Abcam ab95502) (human) (UniProt Q16595); test: Simoa sandwich; capture Ab-1; no helper beads; frataxin 500 pg/mL
[7] = target: Recombinant, his tagged full length human frataxin protein (Abcam ab95502) (human) (UniProt Q16595); test: Simoa sandwich; capture Ab-1; no helper beads; frataxin 18.5 pg/mL
[8] = target: Recombinant, his tagged full length human frataxin protein (Abcam ab95502) (human) (UniProt Q16595); test: Simoa sandwich; capture Ab-1; no helper beads; frataxin 6.17 pg/mL
[9] = target: Recombinant, his tagged full length human frataxin protein (Abcam ab95502) (human) (UniProt Q16595); test: Simoa sandwich 2-step; capture Ab-1; 150 pM SβG; frataxin 500 pg/mL
[10] = target: Recombinant, his tagged full length human frataxin protein (Abcam ab95502) (human) (UniProt Q16595); test: Simoa sandwich 2-step; capture Ab-1; 50 pM SβG; frataxin 55.6 pg/mL
[11] = target: Recombinant, his tagged full length human frataxin protein (Abcam ab95502) (human) (UniProt Q16595); test: Simoa sandwich 2-step; capture Ab-1; 50 pM SβG; frataxin 6.17 pg/mL
[12] = target: Recombinant, his tagged full length human frataxin protein (Abcam ab95502) (human) (UniProt Q16595); test: Simoa sandwich 2-step (120 min-5 min); capture Ab-1; frataxin 2000 pg/mL
[13] = target: Recombinant, his tagged full length human frataxin protein (Abcam ab95502) (human) (UniProt Q16595); test: Simoa sandwich 2-step (120 min-5 min); capture Ab-1; frataxin 74.1 pg/mL
[14] = target: Recombinant, his tagged full length human frataxin protein (Abcam ab95502) (human) (UniProt Q16595); test: Simoa sandwich 2-step (35 min-5 min); capture Ab-1; with helper beads; frataxin 18.5 pg/mL
[15] = target: Recombinant, his tagged full length human frataxin protein (Abcam ab95502) (human) (UniProt Q16595); test: Simoa sandwich 2-step (120 min-5 min); capture Ab-1; Diluent 1 + 10% NCS; frataxin 7.41 pg/mL

UniProt Q16595, sequence (Q16595 42-210): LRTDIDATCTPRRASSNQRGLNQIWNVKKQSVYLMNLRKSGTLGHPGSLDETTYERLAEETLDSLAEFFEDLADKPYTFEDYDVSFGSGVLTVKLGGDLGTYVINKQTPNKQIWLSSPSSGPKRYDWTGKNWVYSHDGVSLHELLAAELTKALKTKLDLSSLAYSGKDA

Question: Which results are given for “Ab-3, mouse monoclonal [18A5DB1] to Frataxin (Abcam ab110328) (antibody)”?
Answer: LOD [1]: 0.28 pg/mL; Estimated LLOQ [2]: 1.16 pg/mL; LOD [2]: 0.551 pg/mL; Ave AEB [3]: 5.52 AEB; S/B [3]: 53.2; Ave AEB [4]: 1.06 AEB; S/B [4]: 224; Ave AEB [5]: 0.165 AEB; S/B [5]: 1.59; AEB Rep1 [6]: 7.94 AEB; AEB Rep2 [6]: 5.08 AEB; Ave AEB [6]: 6.51 AEB; S/B [6]: 288; AEB Rep1 [7]: 0.363 AEB; AEB Rep2 [7]: 0.362 AEB; Ave AEB [7]: 0.363 AEB; S/B [7]: 16; AEB Rep1 [8]: 0.118 AEB; AEB Rep2 [8]: 0.141 AEB; Ave AEB [8]: 0.13 AEB; S/B [8]: 5.74; Ave AEB [9]: 23.7 AEB; S/B [9]: 527; Ave AEB [10]: 1.65 AEB; S/B [10]: 90; Ave AEB [11]: 0.194 AEB; S/B [11]: 10.6; AEB rep1 [12]: 9.8 AEB; AEB rep2 [12]: 10.1 AEB; AEB rep3 [12]: 9.8 AEB; Ave AEB [12]: 9.9 AEB; S/B [12]: 1200; AEB rep1 [13]: 0.357 AEB; AEB rep2 [13]: 0.356 AEB; AEB rep3 [13]: 0.336 AEB; Ave AEB [13]: 0.35 AEB; S/B [13]: 42.4; AEB Rep1 [14]: 1.14 AEB; AEB Rep2 [14]: 1.19 AEB; Ave AEB [14]: 1.16 AEB; S/B [14]: 47.8; Ave AEB [15]: 0.0923 AEB; S/B [15]: 5.08
